Key:
[1] = molecular target: deglycosylated human CD25 (SinoBiological) (Homo sapiens, UniProt P01589, deglycosylated with N-glycosidase F); assay: crystal structure
[2] = molecular target: cynomolgus CD25 on HSC-F cells (cynomolgus CD25+) (Macaca fascicularis, UniProt H6WS54); assay: flow cytometry on cells
[3] = molecular target: human CD25 on SU-DHL1 tumor cells (human CD25+) (Homo sapiens, UniProt P01589); assay: flow cytometry on cells
Sequence of human CD25 on SU-DHL1 tumor cells (human CD25+) (P01589 22-272): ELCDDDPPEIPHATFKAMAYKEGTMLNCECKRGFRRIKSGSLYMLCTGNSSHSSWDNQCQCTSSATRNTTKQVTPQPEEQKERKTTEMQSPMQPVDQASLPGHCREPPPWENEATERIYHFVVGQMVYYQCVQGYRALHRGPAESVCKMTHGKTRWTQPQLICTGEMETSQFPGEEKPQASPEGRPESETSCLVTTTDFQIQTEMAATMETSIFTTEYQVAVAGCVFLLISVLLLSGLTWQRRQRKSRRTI

Sequence of deglycosylated human CD25 (SinoBiological) (P01589 22-213): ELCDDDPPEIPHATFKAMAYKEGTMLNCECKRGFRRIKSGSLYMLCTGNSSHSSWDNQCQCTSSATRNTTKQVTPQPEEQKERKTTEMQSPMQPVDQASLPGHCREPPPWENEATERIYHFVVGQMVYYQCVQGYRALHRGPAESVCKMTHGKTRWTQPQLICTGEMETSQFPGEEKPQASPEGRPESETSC

B1: Fab fragment of RG6292 (Fab, V domains shown)
VH: QVQLVQSGAEVKKPGSSVKVSCKASGGTFSSLAISWVRQAPGQGLEWMGGIIPIFGTANYAQKFQGRVTITADESTSTAYMELSSLRSEDTAVYYCARGGSVSGTLVDFDIWGQGTMVTVSS
VL: not shown
B1: binds [1].

B2: RG6292, a-fucosylated human IgG1 mAb (anti-human CD25^NIB) (antibody, V domains shown)
VH: QVQLVQSGAEVKKPGSSVKVSCKASGGTFSSLAISWVRQAPGQGLEWMGGIIPIFGTANYAQKFQGRVTITADESTSTAYMELSSLRSEDTAVYYCARGGSVSGTLVDFDIWGQGTMVTVSS
VL: not shown
B2: binds [2].

B3: RG6292 (FF), the fully fucosylated version of RG6292 (antibody, V domains shown)
VH: QVQLVQSGAEVKKPGSSVKVSCKASGGTFSSLAISWVRQAPGQGLEWMGGIIPIFGTANYAQKFQGRVTITADESTSTAYMELSSLRSEDTAVYYCARGGSVSGTLVDFDIWGQGTMVTVSS
VL: not shown
B3: binds [3].

Reference: paper PMC7116816 (Nature cancer, 2020)
